Results as given in US7183387 (Genentech, dated 2007).

T1: human FcγRIIA-R131 α subunit extracellular domain-His6-GST fusion (human, UniProt P12318 34-217)
T1 construct: ECD-6His-GST fusion made in 293 cells; also called FcγRIIA-Arg131; not shown: glutathione S transferase (GST)
T1 sequence: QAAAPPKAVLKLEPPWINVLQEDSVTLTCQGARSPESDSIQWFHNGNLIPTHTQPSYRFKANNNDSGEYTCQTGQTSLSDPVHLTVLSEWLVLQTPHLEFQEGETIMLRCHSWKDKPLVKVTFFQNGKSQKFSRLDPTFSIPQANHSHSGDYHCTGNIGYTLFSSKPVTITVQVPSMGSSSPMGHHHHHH


Tests used:
[1] = biological target: T2, human FcγRIIIA-F158 α subunit extracellular domain-His6-GST fusion (human, UniProt P08637 17-208); experiment: ELISA, IgG complex, receptor coated
T2 construct: ECD-6His-GST fusion made in 293 cells; also called FcγRIIIA-Phe158; not shown: glutathione S transferase (GST)

[2] = biological target: T1, human FcγRIIA-R131 α subunit …; experiment: ELISA, IgG complex, receptor coated
[3] = biological target: T3, human FcγRIIIA-V158 α subunit extracellular domain-His6-GST fusion (human, UniProt P08637 17-208); experiment: ELISA, IgG complex, receptor coated
T3 construct: ECD-6His-GST fusion made in 293 cells; also called FcγRIIIA-Val158; not shown: glutathione S transferase (GST)

[4] = biological target: T3, human FcγRIIIA-V158 α subunit …; experiment: ELISA, IgG monomer, receptor coated

T3 sequence (P08637 other isoform, or with tags, fused parts or gaps, form in doubt): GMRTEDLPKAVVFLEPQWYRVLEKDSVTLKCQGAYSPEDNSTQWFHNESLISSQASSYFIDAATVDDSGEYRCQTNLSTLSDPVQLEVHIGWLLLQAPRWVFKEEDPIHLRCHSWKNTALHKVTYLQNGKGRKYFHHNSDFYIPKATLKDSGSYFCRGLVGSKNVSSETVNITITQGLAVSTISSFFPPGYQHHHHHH
T2 sequence (P08637 other isoform, or with tags, fused parts or gaps, form in doubt): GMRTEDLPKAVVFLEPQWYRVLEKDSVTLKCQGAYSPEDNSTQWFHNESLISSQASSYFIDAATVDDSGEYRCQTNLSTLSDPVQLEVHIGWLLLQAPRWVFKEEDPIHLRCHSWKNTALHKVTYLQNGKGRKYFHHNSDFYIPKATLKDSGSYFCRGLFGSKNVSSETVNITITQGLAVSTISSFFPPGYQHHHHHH

| Binder | ratio of binding, variant/native IgG1 (mean) [1] [ratio] | ratio of binding, variant/native IgG1 (mean) [2] [ratio] | ratio of binding, variant/native IgG1 (mean) [3] [ratio] | ratio of binding, variant/native IgG1 (mean) [4] [ratio] |
| --- | --- | --- | --- | --- |
| anti-IgE E27 IgG1 variant D265(278)A (antibody, Fc variant of E27; also called IG2 14; G14) heavy: not shown light: DIQLTQSPSSLSASVGDRVTITCRASKPVDGEGDSYLNWYQQKPGKAPKLLIYAASYLESGVPSRFSGSGSGTDFTLTISSLQPEDFATYYCQQSHEDPYTFGQGTKVEIKRTVAAPSVFIFPPSDEQLKSGTASVVCLLNNFYPREAKVQWKVDNALQSGNSQESVTEQDSKDSTYSLSSTLTLSKADYEKHKVYACEVTHQGLSSPVTKSFNRGEC | 0.09 | 0.07 | 0.01 | – |
| anti-IgE E27 IgG1 variant R292(309)A (antibody, Fc variant of E27; also called IG2 31; G31) heavy: not shown light: DIQLTQSPSSLSASVGDRVTITCRASKPVDGEGDSYLNWYQQKPGKAPKLLIYAASYLESGVPSRFSGSGSGTDFTLTISSLQPEDFATYYCQQSHEDPYTFGQGTKVEIKRTVAAPSVFIFPPSDEQLKSGTASVVCLLNNFYPREAKVQWKVDNALQSGNSQESVTEQDSKDSTYSLSSTLTLSKADYEKHKVYACEVTHQGLSSPVTKSFNRGEC | 0.9 | 0.27 | – | 0.94 |
| anti-IgE E27 IgG1 variant R292(309)N (antibody, Fc variant of E27; also called IG2 83) heavy: not shown light: DIQLTQSPSSLSASVGDRVTITCRASKPVDGEGDSYLNWYQQKPGKAPKLLIYAASYLESGVPSRFSGSGSGTDFTLTISSLQPEDFATYYCQQSHEDPYTFGQGTKVEIKRTVAAPSVFIFPPSDEQLKSGTASVVCLLNNFYPREAKVQWKVDNALQSGNSQESVTEQDSKDSTYSLSSTLTLSKADYEKHKVYACEVTHQGLSSPVTKSFNRGEC | 0.88 | 0.54 | – | 0.91 |
| anti-IgE E27 IgG1 variant R292(309)Q (antibody, Fc variant of E27; also called IG2 82) heavy: not shown light: DIQLTQSPSSLSASVGDRVTITCRASKPVDGEGDSYLNWYQQKPGKAPKLLIYAASYLESGVPSRFSGSGSGTDFTLTISSLQPEDFATYYCQQSHEDPYTFGQGTKVEIKRTVAAPSVFIFPPSDEQLKSGTASVVCLLNNFYPREAKVQWKVDNALQSGNSQESVTEQDSKDSTYSLSSTLTLSKADYEKHKVYACEVTHQGLSSPVTKSFNRGEC | 0.45 | 0.47 | – | 0.56 |
| anti-IgE E27 IgG1 variant K334(353)D (antibody, Fc variant of E27; also called IG2 140) heavy: not shown light: DIQLTQSPSSLSASVGDRVTITCRASKPVDGEGDSYLNWYQQKPGKAPKLLIYAASYLESGVPSRFSGSGSGTDFTLTISSLQPEDFATYYCQQSHEDPYTFGQGTKVEIKRTVAAPSVFIFPPSDEQLKSGTASVVCLLNNFYPREAKVQWKVDNALQSGNSQESVTEQDSKDSTYSLSSTLTLSKADYEKHKVYACEVTHQGLSSPVTKSFNRGEC | 1.13 | 0.51 | 1.07 | – |
| anti-IgE E27 IgG1 variant E333(352)S (antibody, Fc variant of E27; also called IG2 143) heavy: not shown light: DIQLTQSPSSLSASVGDRVTITCRASKPVDGEGDSYLNWYQQKPGKAPKLLIYAASYLESGVPSRFSGSGSGTDFTLTISSLQPEDFATYYCQQSHEDPYTFGQGTKVEIKRTVAAPSVFIFPPSDEQLKSGTASVVCLLNNFYPREAKVQWKVDNALQSGNSQESVTEQDSKDSTYSLSSTLTLSKADYEKHKVYACEVTHQGLSSPVTKSFNRGEC | 0.94 | – | 0.99 | 1.07 |
| anti-IgE E27 IgG1 variant E333(352)D (antibody, Fc variant of E27; also called Glu333Asp) heavy: not shown light: DIQLTQSPSSLSASVGDRVTITCRASKPVDGEGDSYLNWYQQKPGKAPKLLIYAASYLESGVPSRFSGSGSGTDFTLTISSLQPEDFATYYCQQSHEDPYTFGQGTKVEIKRTVAAPSVFIFPPSDEQLKSGTASVVCLLNNFYPREAKVQWKVDNALQSGNSQESVTEQDSKDSTYSLSSTLTLSKADYEKHKVYACEVTHQGLSSPVTKSFNRGEC | 1.26 | – | 1 | 1.7 |
| anti-IgE E27 IgG1 variant R292(309)K (antibody, Fc variant of E27; also called IG2 80) heavy: not shown light: DIQLTQSPSSLSASVGDRVTITCRASKPVDGEGDSYLNWYQQKPGKAPKLLIYAASYLESGVPSRFSGSGSGTDFTLTISSLQPEDFATYYCQQSHEDPYTFGQGTKVEIKRTVAAPSVFIFPPSDEQLKSGTASVVCLLNNFYPREAKVQWKVDNALQSGNSQESVTEQDSKDSTYSLSSTLTLSKADYEKHKVYACEVTHQGLSSPVTKSFNRGEC | 1.15 | 0.71 | – | 1.64 |
| anti-IgE E27 IgG1 variant R292(309)H (antibody, Fc variant of E27; also called IG2 81) heavy: not shown light: DIQLTQSPSSLSASVGDRVTITCRASKPVDGEGDSYLNWYQQKPGKAPKLLIYAASYLESGVPSRFSGSGSGTDFTLTISSLQPEDFATYYCQQSHEDPYTFGQGTKVEIKRTVAAPSVFIFPPSDEQLKSGTASVVCLLNNFYPREAKVQWKVDNALQSGNSQESVTEQDSKDSTYSLSSTLTLSKADYEKHKVYACEVTHQGLSSPVTKSFNRGEC | 0.92 | 0.21 | – | 1.21 |
| anti-IgE E27 IgG1 variant S298(317)A/E333(352)A/K334(353)A (antibody, Fc variant of E27; also called IG2 110; Ser298Ala/Glu333Ala/Lys334Ala) heavy: EVQLVESGGGLVQPGGSLRLSCAVSGYSITSGYSWNWIRQAPGKGLEWVASIKYSGETKYNPSVKGRITISRDDSKNTFYLQMNSLRAEDTAVYYCARGSHYFGHWHFAVWGQGTLVTVSSASTKGPSVFPLAPSSKSTSGGTAALGCLVKDYFPEPVTVSWNSGALTSGVHTFPAVLQSSGLYSLSSVVTVPSSSLGTQTYICNVNHKPSNTKVDKKVEPKSCDKTHTCPPCPAPELLGGPSVFLFPPKPKDTLMISRTPEVTCVVVDVSHEDPEVKFNWYVDGVEVHNAKTKPREEQYNATYRVVSVLTVLHQDWLNGKEYKCKVSNKALPAPIAATISKAKGQPREPQVYTLPPSREEMTKNQVSLTCLVKGFYPSDIAVEWESNGQPENNYKTTPPVLDSDGSFFLYSKLTVDKSRWQQGNVFSCSVMHEALHNHYTQKSLSLSPGK light: DIQLTQSPSSLSASVGDRVTITCRASKPVDGEGDSYLNWYQQKPGKAPKLLIYAASYLESGVPSRFSGSGSGTDFTLTISSLQPEDFATYYCQQSHEDPYTFGQGTKVEIKRTVAAPSVFIFPPSDEQLKSGTASVVCLLNNFYPREAKVQWKVDNALQSGNSQESVTEQDSKDSTYSLSSTLTLSKADYEKHKVYACEVTHQGLSSPVTKSFNRGEC | 1.66 | 0.35 | 1.19 | – |
| anti-IgE E27 IgG1 variant E333(352)K (antibody, Fc variant of E27) heavy: not shown light: DIQLTQSPSSLSASVGDRVTITCRASKPVDGEGDSYLNWYQQKPGKAPKLLIYAASYLESGVPSRFSGSGSGTDFTLTISSLQPEDFATYYCQQSHEDPYTFGQGTKVEIKRTVAAPSVFIFPPSDEQLKSGTASVVCLLNNFYPREAKVQWKVDNALQSGNSQESVTEQDSKDSTYSLSSTLTLSKADYEKHKVYACEVTHQGLSSPVTKSFNRGEC | 0.85 | – | 0.88 | 0.81 |
